B1: PTH1R-WT coupled to a C-terminal HaloTag (parathyroid hormone 1 receptor) [not stated] / β-arrestin2 WT C-terminally fused to Nanoluciferase [not stated] (parent)
chain 1: MGEKPGTRVFKKSSPNCKLTVYLGKRDFVDHLDKVDPVDGVVLVDPDYLKDRKVFVTLTCAFRYGREDLDVLGLSFRKDLFIANYQAFPPTPNPPRPPTRLQERLLRKLGQHAHPFFFTIPQNLPCSVTLQPGPEDTGKACGVDFEIRAFCAKSLEEKSHKRNSVRLVIRKVQFAPEKPGPQPSAETTRHFLMSDRSLHLEASLDKELYYHGEPLNVNVHVTNNSTKTVKKIKVSVRQYADICLFSTAQYKCPVAQVEQDDQVSPSSTFCKVYTITPLLSNNREKRGLALDGKLKHEDTNLASSTIVKEGANKEVLGILVSYRVKVKLVVSRGGDVSVELPFVLMHPKPHDHIALPRPQSAATHPPTLLPSAVPETDAPVDTNLIEFETNYATDDDIVFEDFARLRLKGLKDEDYDDQFC
chain 2: DADDVMTKEEQIFLLHRAQAQCEKRLKEVLQRPASIMESDKGWTSASTSGKPRKDKASGKLYPESEEDKEAPTGSRYRGRPCLPEWDHILCWPLGAPGEVVAVPCPDYIYDFNHKGHAYRRCDRNGSWELVPGHNRTWANYSECVKFLTNETREREVFDRLGMIYTVGYSVSLASLTVAVLILAYFRRLHCTRNYIHMHLFLSFMLRAVSIFVKDAVLYSGATLDEAERLTEEELRAIAQAPPPPATAAAGYAGCRVAVTFFLYFLATNYYWILVEGLYLHSLIFMAFFSEKKYLWGFTVFGWGLPAVFVAVWVSVRATLANTGCWDLSSGNKKWIIQVPILASIVLNFILFINIVRVLATKLRETNAGRCDTRQQYRKLLKSTLVLMPLFGVHYIVFMATPYTEVSGTLWQVQMHYEMLFNSFQGFFVAIIYCFCNGEVQAEIKKSWSRWTLALDFKRKARSGSSSYSYGPMVSHTSVTNVGPRVGLGLPLSPRLLPTATTNGHPQLPGHAKPGTPALETLETTPPAMAAPKDDGFLNGSCSGLDEEASGPERPPALLQEEWETVM
B2: PTH1R-WT coupled to a C-terminal HaloTag (parathyroid hormone 1 receptor) [not stated] / β-arrestin2-dFLR (finger-loop region Y64 to K78 deleted) C-terminally fused to Nanoluciferase [not stated] (parent)
chain 1: MGEKPGTRVFKKSSPNCKLTVYLGKRDFVDHLDKVDPVDGVVLVDPDYLKDRKVFVTLTCAFRDLFIANYQAFPPTPNPPRPPTRLQERLLRKLGQHAHPFFFTIPQNLPCSVTLQPGPEDTGKACGVDFEIRAFCAKSLEEKSHKRNSVRLVIRKVQFAPEKPGPQPSAETTRHFLMSDRSLHLEASLDKELYYHGEPLNVNVHVTNNSTKTVKKIKVSVRQYADICLFSTAQYKCPVAQVEQDDQVSPSSTFCKVYTITPLLSNNREKRGLALDGKLKHEDTNLASSTIVKEGANKEVLGILVSYRVKVKLVVSRGGDVSVELPFVLMHPKPHDHIALPRPQSAATHPPTLLPSAVPETDAPVDTNLIEFETNYATDDDIVFEDFARLRLKGLKDEDYDDQFC
chain 2: B1 chain 2
B3: PTH1R-WT coupled to a C-terminal HaloTag (parathyroid hormone 1 receptor) [not stated] / β-arrestin1-dFLR (finger-loop region Y63 to K77 deleted) C-terminally fused to Nanoluciferase [not stated] (parent)
chain 1: MGDKGTRVFKKASPNGKLTVYLGKRDFVDHIDLVDPVDGVVLVDPEYLKERRVYVTLTCAFRDLFVANVQSFPPAPEDKKPLTRLQERLIKKLGEHAYPFTFEIPPNLPCSVTLQPGPEDTGKACGVDYEVKAFCAENLEEKIHKRNSVRLVIRKVQYAPERPGPQPTAETTRQFLMSDKPLHLEASLDKEIYYHGEPISVNVHVTNNTNKTVKKIKISVRQYADICLFNTAQYKCPVAMEEADDTVAPSSTFCKVYTLTPFLANNREKRGLALDGKLKHEDTNLASSTLLREGANREILGIIVSYKVKVKLVVSRGGLLGDLASSDVAVELPFTLMHPKPKEEPPHREVPENETPVDTNLIELDTNDDDIVFEDFARQRLKGMKDDKEEEEDGTGSPQLNNR
chain 2: B1 chain 2
B4: PTH1R-WT coupled to a C-terminal HaloTag (parathyroid hormone 1 receptor) [not stated] / β-arrestin1 WT C-terminally fused to Nanoluciferase [not stated] (parent)
chain 1: MGDKGTRVFKKASPNGKLTVYLGKRDFVDHIDLVDPVDGVVLVDPEYLKERRVYVTLTCAFRYGREDLDVLGLTFRKDLFVANVQSFPPAPEDKKPLTRLQERLIKKLGEHAYPFTFEIPPNLPCSVTLQPGPEDTGKACGVDYEVKAFCAENLEEKIHKRNSVRLVIRKVQYAPERPGPQPTAETTRQFLMSDKPLHLEASLDKEIYYHGEPISVNVHVTNNTNKTVKKIKISVRQYADICLFNTAQYKCPVAMEEADDTVAPSSTFCKVYTLTPFLANNREKRGLALDGKLKHEDTNLASSTLLREGANREILGIIVSYKVKVKLVVSRGGLLGDLASSDVAVELPFTLMHPKPKEEPPHREVPENETPVDTNLIELDTNDDDIVFEDFARQRLKGMKDDKEEEEDGTGSPQLNNR
chain 2: B1 chain 2

Variants of: B1
Assay: NanoBRET recruitment assay in living cells
Details: with β-arrestin2 WT C-terminally fused to Nanoluciferase; HEK-WT + EV; point at the highest PTH(1-34) concentration (about 3 µM); parent: 7.5; read off a plot

| response | Variant |
| --- | --- |
| 3.4 fold change | chain 2 S475A T477A S478A T480A |
| 6 fold change | chain 2 S463A S465A S466A S467A S469A |

Same assay, conditions: with β-arrestin2 WT C-terminally fused to Nanoluciferase; HEK-WT cells; point at the highest PTH(1-34) concentration (about 3 µM); parent: 7.3; read off a plot

| response | Variant |
| --- | --- |
| 3.4 fold change | chain 2 S475A T477A S478A T480A |
| 6 fold change | chain 2 S463A S465A S466A S467A S469A |

Same assay, conditions: with β-arrestin2 WT C-terminally fused to Nanoluciferase; ΔQ-GRK + EV; point at the highest PTH(1-34) concentration (about 3 µM); parent: 1.7; read off a plot

| response | Variant |
| --- | --- |
| 1.9 fold change | chain 2 S475A T477A S478A T480A |
| 1.8 fold change | chain 2 S463A S465A S466A S467A S469A |

Same assay, conditions: with β-arrestin2 WT C-terminally fused to Nanoluciferase; ΔQ-GRK + GRK2; point at the highest PTH(1-34) concentration (about 3 µM); parent: 5; read off a plot

| response | Variant |
| --- | --- |
| 3.2 fold change | chain 2 S475A T477A S478A T480A |
| 4.8 fold change | chain 2 S463A S465A S466A S467A S469A |

Variants of: B2
Assay: NanoBRET recruitment assay in living cells
Details: with β-arrestin2-dFLR (finger-loop region Y64 to K78 deleted) C-terminally fused to Nanoluciferase; HEK-WT + EV; point at the highest PTH(1-34) concentration (about 3 µM); partner is β-arrestin2-dFLR; parent: 1.4; read off a plot

| response | Variant |
| --- | --- |
| 1.4 fold change | chain 2 S463A S465A S466A S467A S469A |
| 0.95 fold change | chain 2 S475A T477A S478A T480A |

Same assay, conditions: with β-arrestin2-dFLR (finger-loop region Y64 to K78 deleted) C-terminally fused to Nanoluciferase; ΔQ-GRK + EV; point at the highest PTH(1-34) concentration (about 3 µM); partner is β-arrestin2-dFLR; parent: 1; read off a plot

| response | Variant |
| --- | --- |
| 1 fold change | chain 2 S463A S465A S466A S467A S469A |
| 0.95 fold change | chain 2 S475A T477A S478A T480A |

Same assay, conditions: with β-arrestin2-dFLR (finger-loop region Y64 to K78 deleted) C-terminally fused to Nanoluciferase; ΔQ-GRK + GRK2; point at the highest PTH(1-34) concentration (about 3 µM); partner is β-arrestin2-dFLR; parent: 1.3; read off a plot

| response | Variant |
| --- | --- |
| 1.3 fold change | chain 2 S463A S465A S466A S467A S469A |
| 0.95 fold change | chain 2 S475A T477A S478A T480A |

Variants of: B3
Assay: NanoBRET recruitment assay in living cells
Details: with β-arrestin1-dFLR (finger-loop region Y63 to K77 deleted) C-terminally fused to Nanoluciferase; HEK-WT + EV; point at the highest PTH(1-34) concentration (about 3 µM); partner is β-arrestin1-dFLR; parent: 2.8; read off a plot

| response | Variant |
| --- | --- |
| 1.1 fold change | chain 2 S475A T477A S478A T480A |
| 2.6 fold change | chain 2 S463A S465A S466A S467A S469A |

Same assay, conditions: with β-arrestin1-dFLR (finger-loop region Y63 to K77 deleted) C-terminally fused to Nanoluciferase; ΔQ-GRK + EV; point at the highest PTH(1-34) concentration (about 3 µM); partner is β-arrestin1-dFLR; parent: 1; read off a plot

| response | Variant |
| --- | --- |
| 1 fold change | chain 2 S475A T477A S478A T480A |
| 1 fold change | chain 2 S463A S465A S466A S467A S469A |

Same assay, conditions: with β-arrestin1-dFLR (finger-loop region Y63 to K77 deleted) C-terminally fused to Nanoluciferase; ΔQ-GRK + GRK2; point at the highest PTH(1-34) concentration (about 3 µM); partner is β-arrestin1-dFLR; parent: 2.3; read off a plot

| response | Variant |
| --- | --- |
| 1.1 fold change | chain 2 S475A T477A S478A T480A |
| 2.1 fold change | chain 2 S463A S465A S466A S467A S469A |

Variants of: B4
Assay: NanoBRET recruitment assay in living cells
Details: with β-arrestin1 WT C-terminally fused to Nanoluciferase; HEK-WT + EV; point at the highest PTH(1-34) concentration (about 3 µM); parent: 5.9; read off a plot

| response | Variant |
| --- | --- |
| 5.8 fold change | chain 2 S463A S465A S466A S467A S469A |
| 2.9 fold change | chain 2 S475A T477A S478A T480A |

Same assay, conditions: with β-arrestin1 WT C-terminally fused to Nanoluciferase; HEK-WT cells; point at the highest PTH(1-34) concentration (about 3 µM); parent: 5.9; read off a plot

| response | Variant |
| --- | --- |
| 5.9 fold change | chain 2 S463A S465A S466A S467A S469A |
| 2.9 fold change | chain 2 S475A T477A S478A T480A |

Same assay, conditions: with β-arrestin1 WT C-terminally fused to Nanoluciferase; ΔQ-GRK + EV; point at the highest PTH(1-34) concentration (about 3 µM); parent: 1.4; read off a plot

| response | Variant |
| --- | --- |
| 1.7 fold change | chain 2 S463A S465A S466A S467A S469A |
| 2 fold change | chain 2 S475A T477A S478A T480A |

Same assay, conditions: with β-arrestin1 WT C-terminally fused to Nanoluciferase; ΔQ-GRK + GRK2; point at the highest PTH(1-34) concentration (about 3 µM); parent: 5.3; read off a plot

| response | Variant |
| --- | --- |
| 6.3 fold change | chain 2 S463A S465A S466A S467A S469A |
| 2.7 fold change | chain 2 S475A T477A S478A T480A |

Reference: article PMC9512828
